Experimental data: US10087225B2, “Formulation of MK2 inhibitor peptides” (MOERAE MATRIX, INC., priority 2015, dated 2018)

What was measured:
Assay in all cases: Kinase Profiling Assay
Format in all cases: biochemical
Details in all cases: for % activity: 100 μM
EGFR(L861Q)(h) = EGFR(L861Q)(h) (Homo sapiens, UniProt P00533, L861Q)
EphB2(h) = target: T1, EphB2(h) (Homo sapiens, UniProt P29323)
T1 sequence (P29323 19-1055): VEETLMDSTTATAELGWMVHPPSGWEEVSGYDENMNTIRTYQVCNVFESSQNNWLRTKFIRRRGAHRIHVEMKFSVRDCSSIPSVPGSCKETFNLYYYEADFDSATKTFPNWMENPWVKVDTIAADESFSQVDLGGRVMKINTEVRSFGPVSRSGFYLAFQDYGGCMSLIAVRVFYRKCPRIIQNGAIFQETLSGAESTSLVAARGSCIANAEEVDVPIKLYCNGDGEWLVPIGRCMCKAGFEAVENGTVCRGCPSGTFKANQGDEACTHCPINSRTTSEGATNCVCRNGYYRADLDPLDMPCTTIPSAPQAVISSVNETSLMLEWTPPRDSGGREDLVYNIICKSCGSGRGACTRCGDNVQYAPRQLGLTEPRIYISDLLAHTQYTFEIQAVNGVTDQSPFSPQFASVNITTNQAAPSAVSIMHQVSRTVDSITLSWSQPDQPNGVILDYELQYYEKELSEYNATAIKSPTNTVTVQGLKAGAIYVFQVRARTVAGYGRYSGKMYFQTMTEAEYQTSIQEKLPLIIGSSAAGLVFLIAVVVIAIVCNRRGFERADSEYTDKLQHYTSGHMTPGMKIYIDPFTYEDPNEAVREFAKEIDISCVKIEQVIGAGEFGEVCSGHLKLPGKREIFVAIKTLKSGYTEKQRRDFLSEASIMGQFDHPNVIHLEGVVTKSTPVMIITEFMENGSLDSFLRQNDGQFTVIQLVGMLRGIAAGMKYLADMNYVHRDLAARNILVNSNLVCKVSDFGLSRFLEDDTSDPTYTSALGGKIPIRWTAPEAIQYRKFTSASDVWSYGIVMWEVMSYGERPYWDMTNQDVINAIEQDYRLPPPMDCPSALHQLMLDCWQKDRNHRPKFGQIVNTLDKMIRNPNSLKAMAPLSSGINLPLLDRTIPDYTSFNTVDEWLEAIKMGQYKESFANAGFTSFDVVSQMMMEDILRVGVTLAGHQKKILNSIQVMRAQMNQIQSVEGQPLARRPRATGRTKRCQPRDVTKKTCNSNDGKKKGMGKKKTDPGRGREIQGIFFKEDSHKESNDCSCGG

Haspin(h) = target: T2, Haspin(h) (Homo sapiens, UniProt Q8TF76)
T2 sequence (Q8TF76 1-798): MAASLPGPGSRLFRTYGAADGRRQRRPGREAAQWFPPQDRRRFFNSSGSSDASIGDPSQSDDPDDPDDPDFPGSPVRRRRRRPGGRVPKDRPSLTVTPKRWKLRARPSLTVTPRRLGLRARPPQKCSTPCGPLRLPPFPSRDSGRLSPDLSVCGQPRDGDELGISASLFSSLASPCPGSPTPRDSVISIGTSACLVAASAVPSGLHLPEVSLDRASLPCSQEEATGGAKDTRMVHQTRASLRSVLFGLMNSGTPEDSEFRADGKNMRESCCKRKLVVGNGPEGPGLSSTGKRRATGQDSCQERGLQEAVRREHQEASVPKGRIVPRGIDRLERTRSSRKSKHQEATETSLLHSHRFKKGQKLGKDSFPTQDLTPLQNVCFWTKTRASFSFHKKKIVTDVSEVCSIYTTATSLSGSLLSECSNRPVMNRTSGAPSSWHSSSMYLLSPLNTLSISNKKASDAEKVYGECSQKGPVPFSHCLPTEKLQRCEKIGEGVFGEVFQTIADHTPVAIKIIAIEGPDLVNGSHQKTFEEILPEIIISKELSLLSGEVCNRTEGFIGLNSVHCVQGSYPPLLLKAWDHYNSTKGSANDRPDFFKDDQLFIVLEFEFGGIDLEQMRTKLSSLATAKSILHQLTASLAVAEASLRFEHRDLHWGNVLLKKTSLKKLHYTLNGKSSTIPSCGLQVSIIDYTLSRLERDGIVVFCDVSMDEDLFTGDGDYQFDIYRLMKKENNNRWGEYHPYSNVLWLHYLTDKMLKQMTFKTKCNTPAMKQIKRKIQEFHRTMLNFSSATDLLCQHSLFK

ULK3(h) = target: T3, ULK3(h) (Homo sapiens, UniProt Q6PHR2)
T3 sequence (Q6PHR2 1-472): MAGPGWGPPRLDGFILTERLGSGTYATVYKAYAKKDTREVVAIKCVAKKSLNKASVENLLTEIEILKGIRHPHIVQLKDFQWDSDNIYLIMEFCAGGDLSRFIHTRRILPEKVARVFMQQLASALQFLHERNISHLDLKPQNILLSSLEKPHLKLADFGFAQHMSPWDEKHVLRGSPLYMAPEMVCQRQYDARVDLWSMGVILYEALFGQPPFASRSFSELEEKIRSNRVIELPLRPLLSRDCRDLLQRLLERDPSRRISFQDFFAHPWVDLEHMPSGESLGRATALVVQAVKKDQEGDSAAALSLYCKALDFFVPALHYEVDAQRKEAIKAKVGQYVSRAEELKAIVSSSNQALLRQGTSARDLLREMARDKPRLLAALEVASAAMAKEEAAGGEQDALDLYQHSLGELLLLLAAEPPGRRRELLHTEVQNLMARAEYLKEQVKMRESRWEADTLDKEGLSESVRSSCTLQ

Substance	activity at 100 µM (EGFR(L861Q)(h))	activity at 100 µM (EphB2(h))	activity at 100 µM (Haspin(h))	activity at 100 µM (ULK3(h))	% activity (EGFR(L861Q)(h))	% activity (EphB2(h))	% activity (Haspin(h))	% activity (ULK3(h))
H-YARAAARQARAKALARQLGVAA-OH [MMI-0100]	53%	68%	127%	142%				
YARAAARQARAKALNRQLGVA (Mammalian) [MMI-0200]					74%	128%	71%	164%
HRRIKAWLKKIKALARQLGVAA (Mammalian) [MMI-0500]					15%	70%	25%	177%
